# Data: US20260049134A1 (UNIVERSITY OF FLORIDA RESEARCH FOUNDATION, published 2026)
# T1: GARS, endogenous in H929 multiple myeloma cells (human, UniProt P41250 37-739, limits assumed)
# T1 construct: Native protein pulled down from H929 lysates; also called Glycyl-tRNA synthetase; GlyRS
# T1 sequence: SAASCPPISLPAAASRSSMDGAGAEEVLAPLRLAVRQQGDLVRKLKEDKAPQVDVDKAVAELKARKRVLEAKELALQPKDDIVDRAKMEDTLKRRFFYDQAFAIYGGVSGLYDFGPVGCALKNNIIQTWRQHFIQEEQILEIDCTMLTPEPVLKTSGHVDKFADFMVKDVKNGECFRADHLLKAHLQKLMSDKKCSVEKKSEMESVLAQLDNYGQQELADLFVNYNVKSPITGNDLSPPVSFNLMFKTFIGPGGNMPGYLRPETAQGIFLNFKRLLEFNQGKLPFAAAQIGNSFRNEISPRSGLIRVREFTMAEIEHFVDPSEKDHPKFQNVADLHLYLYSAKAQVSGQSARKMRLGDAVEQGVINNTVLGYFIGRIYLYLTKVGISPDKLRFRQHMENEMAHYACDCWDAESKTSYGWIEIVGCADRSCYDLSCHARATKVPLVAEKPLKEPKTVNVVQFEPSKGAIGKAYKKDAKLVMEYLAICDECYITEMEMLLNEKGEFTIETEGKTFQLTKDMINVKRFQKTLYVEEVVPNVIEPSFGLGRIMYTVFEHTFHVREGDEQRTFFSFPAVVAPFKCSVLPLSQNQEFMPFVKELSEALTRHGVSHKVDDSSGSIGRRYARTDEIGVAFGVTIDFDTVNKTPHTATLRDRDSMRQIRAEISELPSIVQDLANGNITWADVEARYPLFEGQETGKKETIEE
# T2: SELL (L-Selectin)
# T2 construct: coated protein in the ELISA; also called SELL-Fc-His (R&D Systems)
# T2 chain: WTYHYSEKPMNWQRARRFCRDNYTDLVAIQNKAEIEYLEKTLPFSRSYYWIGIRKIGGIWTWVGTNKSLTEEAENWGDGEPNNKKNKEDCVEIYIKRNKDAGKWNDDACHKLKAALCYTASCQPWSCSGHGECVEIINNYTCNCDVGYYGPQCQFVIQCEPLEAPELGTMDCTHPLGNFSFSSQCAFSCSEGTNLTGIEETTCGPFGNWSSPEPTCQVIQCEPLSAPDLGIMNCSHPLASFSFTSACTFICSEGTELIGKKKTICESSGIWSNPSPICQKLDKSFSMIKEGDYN
# B1: HW-81 chimeric rabbit-human IgG1 LA/LA/PG (antibody, V domains shown)
# VH: QKQLVESGGGLVTPGGTLTLTCTVSGFSLSSNGVSWVRQAPGKGLEYIGLIRSIGSTYYATWAKGRFTISKTSTTVDLKITSPTTEDTATYFCARGGYRNGFKLWGPGTLVTVSS
# VL: QPVLTQSPSVSAALGASAKLTCTLSSAHKTYYIEWYQQQHPGKAPRYLMQLQSDGSYTKGTGVPDRFSGSSSGADRYLIISSVQAEDEADYICGVIDSAVYVFGGGTQLTVTG
# notes: Fc-silenced (L234A/L235A/P329G) IgG1, lambda; Alexa Fluor 647-labeled in single-step flow cytometry; Cluster C-45
# B2: HW-16 chimeric rabbit-human IgG1 LA/LA/PG (antibody, V domains shown)
# VH: QSLEESGGRLVTPGTPLTLTCTASGFSLSSYAMSWVRQAPGKGLEWIGTMPTGGGTYYASWAKGRFTISKTSTTVDLQITSPTTEDTATYFCAKHWNIWGPGTLVTISS
# VL: DIVLTQTPSSTSTAVGDTVTINCRASQSIGRNLAWFQQKPGQPPKLLIYRASNLASGVPSRFKGSGSRTQFTLTISGVQREDAATYYCLGSYSSSDTAFGGGTELEILR
# notes: Fc-silenced (L234A/L235A/P329G) IgG1, kappa; Alexa Fluor 647-labeled in single-step flow cytometry; Cluster C-45
# B3: HW-8 chimeric rabbit-human IgG1 LA/LA/PG (antibody, V domains shown)
# VH: QSLEESGGRLVTPGTPLTLTCTVSGFSLSSYAMSWVRQAPGKGLEWIGAISTGGSTTYASWAKGRFTISKTSSTTVDLKMTSLTTEDTATYFCVRHFRLWGPGTLVTISS
# VL: QVLTQTPSSVSAAVGGTVTIKCQASQSIGSALAWFQQKPGQRPKLLIYRASNLASGVPSRFKGSGSGTEFALTISGVQREDAATYYCLGGAAAVWAFGAGTNVEIKR
# notes: as for B2
# B4: HW-56 chimeric rabbit-human IgG1 LA/LA/PG (antibody, V domains shown)
# VH: QSVKESEGGLFKPTDTLTLTCTASGFTVSTNAVTWVRQAPGNGLEYIGTIGRSGSAYFASWAKRRSTLTRDINLNTVTLKMTSLTAADTATYFCVRGSPGYRTAISIWGPGTLVTISS
# VL: AVMTQTPSSTSAAVEGTVTINCQASQSISNRLSWFQQKPGQPPKLLIYQASTLASGVPSRFKGSGSGTEFTLTISGVQREDAATYYCLGSYSSSDASFGGGTKLEIKR
# notes: as for B2
# B5: HW-28 chimeric rabbit-human IgG1 LA/LA/PG (antibody, V domains shown)
# VH: QKQLVESGGRLVTPGTPLTLTCTASGFSLSSNAMSWVRQAPGEGLQWIGTISSGGSTYYASWAKGRFTISKTSTTVTLKMTSLTTEDTATYFCARGADLHRLWGPGTLVTVSS
# VL: SFVLTQPASVQVNLGQTVSLTCTGKPLSRSFASWYQQKPGQAPVLVIYRDTSRPSGVPDRFSGSSSGNTATLTISGAQAGDEADYYCATSDGSGSSYQYVFGGGTQLTVTG
# notes: as for B1
# Target: T1, GARS, endogenous in H929 multiple …
# Experiment: flow cytometry, H929 + NT Green siRNA; None 1.35; surface target GARS putative
row,Cells stained (%),Binder
1,99.7,B1
2,99.1,B2
3,86.6,B3
4,99.7,B4
5,98.5,B5

# Target: T1, GARS, endogenous in H929 multiple …
# Experiment: flow cytometry, H929 + PTPRG siRNA; None 490; surface target GARS putative
row,mAb binding (MFI),Binder
1,630000,B1
2,41600,B2
3,13600,B3
4,479000,B4
5,41900,B5

# Target: T1, GARS, endogenous in H929 multiple …
# Experiment: flow cytometry, H929 + GARS siRNA (siRNA against the putative target); None 452
row,mAb binding (MFI),Binder
1,216000,B1
2,155000,B2
3,109000,B3
4,413000,B4
5,170000,B5

# Target: T1, GARS, endogenous in H929 multiple …
# Experiment: flow cytometry, H929 + CADM1 siRNA; None 0.89; surface target GARS putative
row,Cells stained (%),Binder
1,99.8,B1
2,99,B2
3,89.3,B3
4,99.6,B4
5,98.5,B5

# Target: T1, GARS, endogenous in H929 multiple …
# Experiment: flow cytometry, H929 + vehicle; None 513; surface target GARS putative
row,mAb binding (MFI),Binder
1,682000,B1
2,61100,B2
3,16700,B3
4,481000,B4
5,44400,B5

# Target: T3, ICAM1-Fc (R&D Systems) (human, UniProt P05362 28-480)
# T3 construct: Bought; also called ICAM-1/CD54; not shown: Fc of the bought fusion protein
# T3 sequence (P05362 28-480): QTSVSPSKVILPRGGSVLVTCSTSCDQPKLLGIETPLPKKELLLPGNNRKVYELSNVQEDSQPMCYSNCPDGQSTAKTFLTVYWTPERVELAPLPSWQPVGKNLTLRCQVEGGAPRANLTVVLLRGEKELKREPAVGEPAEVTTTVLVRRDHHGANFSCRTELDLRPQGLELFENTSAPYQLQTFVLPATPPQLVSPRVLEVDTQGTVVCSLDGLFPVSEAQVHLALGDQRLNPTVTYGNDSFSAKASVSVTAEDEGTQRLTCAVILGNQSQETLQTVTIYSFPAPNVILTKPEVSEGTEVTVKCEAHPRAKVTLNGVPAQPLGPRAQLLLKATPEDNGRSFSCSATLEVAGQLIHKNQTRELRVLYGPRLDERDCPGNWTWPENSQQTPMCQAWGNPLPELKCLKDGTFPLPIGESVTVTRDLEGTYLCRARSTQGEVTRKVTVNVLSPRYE
# Experiment: ELISA on coated ICAM1-Fc
# Description: (§1) Recombinant purified ECDs (50-150 ng) of each putative target protein were coated, incubated with 150 ng of the indicated primary antibody, and binding was detected using a peroxidase-conjugated anti-human Fab secondary antibody. Heatmap represents averages of technical triplicates. (8B) Target validation via siRNA knockdown. H929 cells were transfected with siRNA pools targeting the putative antibody targets ICAM1, CADM1, and PTPRG. Cells were then subjected to cognate IgG binding analysis via flow cytometry. (NT, non-targeting siRNA).
# (§2) ELISA ELISA was conducted as described previously. Briefly, 50-150 ng of antigen was coated overnight in half-area 96-well plates at 4° C., blocked with 3% BSA at 37° C. for 1 h, and 150 ng of chimeric rabbit/human IgG1 was added, incubating for 2 h at 37° C. […] After incubating at 37° C. for 15 min-1 h (depending on intensity of controls), data were acquired using a SpectraMax M5 plate reader (Molecular Devices).
row,Binder,binding result
1,B1,no binding (tested: 150 ng IgG1 per well)
2,B2,no binding (tested: 150 ng IgG1 per well)
3,B4,no binding (tested: 150 ng IgG1 per well)
4,B5,no binding (tested: 150 ng IgG1 per well)

# Target: T1, GARS, endogenous in H929 multiple …
# Experiment: flow cytometry, H929 + PTPRG siRNA; None 2.13; surface target GARS putative
row,Cells stained (%),Binder
1,100,B1
2,98.2,B2
3,84.3,B3
4,99.8,B4
5,98.6,B5

# Target: T1, GARS, endogenous in H929 multiple …
# Experiment: flow cytometry, H929 + CADM1 siRNA; None 449; surface target GARS putative
row,mAb binding (MFI),Binder
1,696000,B1
2,45900,B2
3,17000,B3
4,547000,B4
5,66800,B5

# Target: T2, SELL (L-Selectin)
# Experiment: ELISA on coated SELL-Fc-His
# Description: as §1, §2
row,Binder,binding result
1,B1,no binding (tested: 150 ng IgG1 per well)
2,B3,no binding (tested: 150 ng IgG1 per well)
